± gives the uncertainty stated by the source.
Experiment: amyloid nucleation score (Sup35N fusion, yeast selection) (log enrichment); library NNK2; higher = more nucleation; inactive = no reads after selection
Procedure, shortened: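 Libraries of peptides of 20 random codons fused to Sup35N were expressed in psi-negative yeast and induced 24 hours with 100 μM copper sulfate. Selection was 7 days at 30°C on medium lacking adenine and uracil, and plasmid inserts were Illumina-sequenced before and after selection. Nucleation score is the DiMSum log enrichment of output over input reads, centred on the mode score of non-aggregating sequences, and sequences with under 100 input reads were left out.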

Substance | amyloid nucleation score
SCIDCLRLSLLSGCIHWVNY | 0.509 ± 0.8
SCLTDQDERPGLWELSCRYM | 1.1 ± 0.34
SCMSFVLKFPQTLSVWVCWG | 4.97 ± 0.072
SCNRRSSVVPWWWLTFRRWN | -1.16 ± 1.1
SCRDNIRGQRLGHHAGLWSR | 0.479 ± 0.2
SCRNCSQSVSLGGSSKPRQV | 0.455 ± 0.4
SCSISGMVVWDRMVKLSLSL | -0.317 ± 0.48
SCSVGRNKMWILVLVVVWGE | 0.035 ± 0.54
SCVCVMSYQLNVWRKHDSCI | 4.606 ± 0.035
SCVGTN | -0.062 ± 0.55
SCYRFSRSRS | -0.359 ± 0.49
SDARPYWIIYMSNQPYGIDS | inactive
SDEIECCKYFFGYL | 5.347 ± 0.047
SDERSGFRTSVRG | 0.479 ± 0.29
SDEVVVFRRDMSGCHEFVLV | 1.12 ± 0.27
SDFIPGKMCLNCLWWFVPTR | -0.496 ± 0.36
SDISNQLMFFGRWAPRVLVD | -0.35 ± 1.1
SDLVLKSLFDVVARRL | -0.072 ± 0.35
SDPHMHD | 0.521 ± 0.25
SDTSVRGLLLEVCRWSGWVA | 1.33 ± 0.35
SDVRVLNDQKSGVFC | 0.706 ± 0.15
SDYVYKFSVAWWVPVSSVVK | 0.701 ± 0.38
SEGLG | 3.53 ± 0.063
SEPKEVCLVIGGEEYKGVVS | 0.364 ± 0.37
SFCKCLVVALVDVWNRCLPW | 4.68 ± 0.051
SFCVALFSWSVYVTIRVHYR | -0.545 ± 0.79

Substance | amyloid nucleation score
SFCYLLSTISVTIALVKTRG | -0.271 ± 0.5
SFDCKVMVFCAMRYNLRIMS | -1 ± 0.5
SFDLAVTECIALCFRCYQVF | -1.04 ± 0.39
SFDVYVEARLMDSVTGLDRI | 0.437 ± 0.32
SFDWWASHRTIVY | -0.217 ± 0.42
SFEFVACVVMYMCCRTMFIL | -0.164 ± 0.24
SFFMEDQCTRPLVWEVRVFN | 0.049 ± 1.1
SFGCINTCFCMCSCFVREMD | 1.5 ± 0.14
SFGHATLYSFH | -0.058 ± 0.65
SFHFCWFRYNWCYFGLS | 0.058 ± 1
SFHLS | -0.019 ± 0.6
SFIHDWTNFHGSLGFDYGCD | 0.112 ± 1.1
SFIHFPFWFILHNRALTRRV | 0.057 ± 1.1
SFKVMYKENNTNLGSLLWDG | 0.049 ± 0.21
SFLFMKSTIRFIEL | -1.34 ± 0.36
SFLRARLCCHMMGHSTLKYH | -0.72 ± 1.1
SFLSRL | -0.4 ± 0.65
SFLVSFHPMS | -1.33 ± 0.48
SFNVSTMRLQIVSVLRKSRR | 0.236 ± 1.1
SFNVYRASGVKVRQWAFHGG | 0.076 ± 0.61
SFSNTAAYAKEYCRSYWVLV | inactive
SFSRYF | -1.58 ± 0.75
SFTAHTSIHASNLYTDLLLC | 3.41 ± 0.063
SFTCLLSFKQSCHSFMPCPC | 1.03 ± 0.32
SFTYASSV | -1.1 ± 0.28
SFVCWITVCNFRVSQ | 3.21 ± 0.12

Substance | amyloid nucleation score
SFVLIKIMILLCDAVYGH | 3.58 ± 0.054
SFVTYSNSLFFTISSDSK | 6.826 ± 0.054
SFVWRWRRSEFHQVMRGGWP | 2.15 ± 0.23
SFWISVGLWFWLGEYMGRNE | 2.17 ± 0.12
SGCFVWPELVGESSIIMCPS | inactive
SGCTGFCRRGPVRCWGSCLL | inactive
SGCVA | 0.474 ± 0.24
SGDFI | inactive
SGESSNCWLMIL | inactive
SGFFAVGILITTLPLRGNER | 0.22 ± 0.45
SGFGCLFTMW | 1.63 ± 0.27
SGFKLLGFTNYVHAVSMGSQ | 3.25 ± 0.15
SGGLLKRWYRVDLGVVRYLY | inactive
SGIALFKPSCSVGVAQFDYE | -0.024 ± 0.45
SGILVKLVMIFSWKGGGV | 2.96 ± 0.066
SGIWFQQDMMN | -0.258 ± 0.55
SGLEQRGMFRRKNLPIKWCL | 3.89 ± 0.041
SGLLVSNKFWGICTNYFGQR | 6.684 ± 0.045
SGNHSLVLYDWDYVWYVTQY | -1.1 ± 0.45
SGPWTSWLVSLG | -0.003 ± 1.1
SGRHVNVLYYNFNGPDDQFK | 6.866 ± 0.029
SGRLL | 1 ± 0.13
SGRTGIGWYLFCRPYPIVYA | 0.277 ± 0.39
SGRYFRIRRPYEDCQGREVA | 1.22 ± 0.38
SGSYF | -0.504 ± 0.45
SGTKPLCKQ | 1.22 ± 0.34

Substance | amyloid nucleation score
SGTWMGAATY | 3.62 ± 0.11
SGWWTKHRTMLKYYTLFAMG | -0.449 ± 0.44
SGYPRRIYWLVGKCLWYHRA | 0.921 ± 0.48
SHGELEVAMPDTGNI | -0.378 ± 0.32
SHMHEEHIVEECTCSTPRRK | 1.32 ± 0.44
SHNFRISYKSCVLNSCMKRL | inactive
SHNGHVLVPNRVVSITSCHR | 0.147 ± 0.76
SHNVGYCSVSCSCTWWHSCV | inactive
SHTVGFSRAVRVCRGTDHT | 0.72 ± 0.38
SHWLHGFSH | inactive
SIAHGQTSQNSTEWARVDG | 0.387 ± 0.29
SIDYD | -0.627 ± 0.76
SIFPRTCSNSACLWISSRKL | 4.259 ± 0.042
SIFYLEGDHDLTTCTDLNTF | 3.13 ± 0.094
SIHDQLGHYVFIV | -1.16 ± 0.62
SIKGGSIEIEMYELESWVQL | -0.791 ± 1.1
SIQCMISWQDRDNVEACKVE | 0.346 ± 0.21
SIRQTCKFGYIMAWL | 7.064 ± 0.057
SIRSVILLCATLTSVGASLS | 2.14 ± 0.14
SISHQRMWKGCADEII | -0.242 ± 1.1
SISTSTGLRRHPYNGPKIGM | -0.221 ± 0.32
SITMELVYLPYQFMKSRRSW | 4.35 ± 0.067
SIWYLGGC | -0.02 ± 0.42
SIYSSGNALTYQRIHNWVGI | -0.953 ± 0.44
SKCIASFNLRSYCMSRLASS | -1.15 ± 1.1
SKGIDSEIHKRHRVRD | -0.206 ± 0.54

Substance | amyloid nucleation score
SKGRHVMGLGCEGNIWLKEL | -0.377 ± 0.34
SKGYCWNVICSRVSFTTYAL | 6.77 ± 0.061
SKKELLNAVPVGMG | 0.113 ± 0.63
SKLEENIPKLVTRYQCGTGR | 0.143 ± 0.37
SKSVWMRLVS | -0.58 ± 0.24
SLCPRYYGF | inactive
SLDIDQTVRFTTK | 5.618 ± 0.036
SLEKMWCRLFKGSQT | 1.11 ± 0.12
SLFQCNGSCVIYSYGILLYL | 7.71 ± 0.082
SLGNVELRQ | -0.679 ± 0.29
SLIKKFMLCFVYQREAHLLS | 0.402 ± 0.8
SLLIYQMYE | -0.263 ± 0.76
SLLMNMS | 0.269 ± 0.37
SLLRIRQYVVWRLG | 0.079 ± 0.6
SLMWDGANLYCMMVYSSVRN | 0.182 ± 1.1
SLNRTTSSLVRW | 6.029 ± 0.037
SLPDRKIKWESGGP | 0.646 ± 0.33
SLPGLGFLRLFFQ | 0.089 ± 0.55
SLQFVGYYFPFNRVCARSGA | -0.913 ± 0.45
SLQGVM | -1.04 ± 0.44
SLSCSESGVKNRKVVELGWM | 0.432 ± 0.32
SLSVSTAVIVITLTNGEFIG | 2.64 ± 0.1
SLSYDWFASHLWTYDGW | -1.03 ± 0.34

— the supplement of paper PMC12042874
